Results from publication PMC12520519, “RESP2: An Uncertainty Aware Multi‐Target Multi‐Property Optimization AI Pipeline for Antibody Discovery” (Advanced Science, 2025).

Target: T1, receptor binding domain (RBD) of the SARS-CoV-2 spike protein, Delta variant (SARS-CoV-2, Delta (B.1.617.2), strain)
T1 construct: also called Delta RBD; source: bought: Acro Biosystems
Assay: flow cytometry on cells
Conditions: one partner purified

B1: Delta-6 scFv (scFv, V domains shown)
VH: EVQLLESGGGLVQPGGTLRLSCAASGFIVSSNYMSWVRQAPGKGLEWVSLVYPGGSTYYADSVKGRFTVSRDNSKNTLYLQMNSLRAEDMAVYYCARDLPSGVDAVDAFDIWGQGTMVTVSS
VL: DIRVTQSPSSLSASVGDRVSITCRASQIISGYLNWYQQKPGSAPQLLIYASSSLQSGVPPRFSGSRSGTEFTLTISSLQPEDFATYYCQQTYSIPFTFGPGTKVDIK
notes: also called WT Delta-6 scFv; starting clone
Binder B1 has a Kd of 1.3 nM.
